{"source": "patent US10117916B2", "about": "“Peptides and combination of peptides for use in immunotherapy against CLL and other cancers” (immatics biotechnologies GmbH, priority 2015, dated 2018)", "data": [{"target": "HLA-A*02:01 (Homo sapiens, UniProt P04439, D140Y/D185E/D98H/E176V/E277Q/G131W/G231S/I119V/I121R/I166T/I218V/L300P/L318F/N151K/N90K/P208A/P217A/Q86G/Q94H/R138H/R169H/T345S)", "test": "MHC binding assay: UV-ligand exchange with β2m ELISA (peptide exchange yield)", "conditions": "MHC class I binding score; binding to HLA-A*02:01 ranged by peptide exchange yield (UV-ligand exchange, β2m ELISA)", "from_the_text": "Candidate peptides for T cell based therapies according to the present invention were further tested for their MHC binding capacity (affinity). The individual peptide-MHC complexes were produced by UV-ligand exchange, where a UV-sensitive peptide is cleaved upon UV-irradiation, and exchanged with the peptide of interest as analyzed. Only peptide candidates that can effectively bind and stabilize the peptide-receptive MHC molecules prevent dissociation of the MHC complexes. To determine the yield of the exchange reaction, an ELISA was performed based on the detection of the light chain (β2m) of stabilized MHC complexes. The assay was performed as generally described in Rodenko et al. (Rodenko et al., 2006).\n96 well MAXISorp plates (NUNC) were coated over night with 2 ug/ml streptavidin in PBS at room temperature, washed 4× and blocked for 1 h at 37° C. in 2% BSA containing blocking buffer. Refolded HLA-A*02:01/MLA-001 monomers served as standards, covering the range of 15-500 ng/ml. Peptide-MHC monomers of the UV-exchange reaction were diluted 100 fold in blocking buffer. Samples were incubated for 1 h at 37° C., washed four times, incubated with 2 ug/ml HRP conjugated anti-β2m for 1 h at 37° C., washed again and detected with TMB solution that is stopped with […]. Absorption was measured at 450 nm. Candidate peptides that show a high exchange yield (preferably higher than 50%, most preferred higher than 75%) are generally preferred for a generation and production of antibodies or fragments thereof, and/or T cell receptors or fragments thereof, as they show sufficient avidity to the MHC molecules and prevent dissociation of the MHC complexes.", "values": [{"substance": "313 (LMADLEGLHL; listed as Homo sapiens) [compound 313]", "Peptide Exchange": "″+++″ (≥50 = +++)"}, {"substance": "126 (LLPEGGITAI; listed as Homo sapiens) [compound 126]", "Peptide Exchange": "″+++″ (≥50 = +++)"}, {"substance": "308 (SLYDVSRMYV; listed as Homo sapiens) [compound 308]", "Peptide Exchange": "″++++″ (≥75% = ++++)"}, {"substance": "264 (TILDYINVV; listed as Homo sapiens) [compound 264]", "Peptide Exchange": "″+++″ (≥50 = +++)"}, {"substance": "326 (VLAFLVHEL; listed as Homo sapiens) [compound 326]", "Peptide Exchange": "″++++″ (≥75% = ++++)"}, {"substance": "315 (LVYEAPETV; listed as Homo sapiens) [compound 315]", "Peptide Exchange": "″+++″ (≥50 = +++)"}, {"substance": "215 (VMQDIVYKL; listed as Homo sapiens) [compound 215]", "Peptide Exchange": "″+++″ (≥50 = +++)"}, {"substance": "341 (LLAELPASVHA; listed as Homo sapiens) [compound 341]", "Peptide Exchange": "″+++″ (≥50 = +++)"}, {"substance": "8 (ALAASALPALV; listed as Homo sapiens) [compound 8]", "Peptide Exchange": "″+++″ (≥50 = +++)"}, {"substance": "119 (VLPAEFFEV; listed as Homo sapiens) [compound 119]", "Peptide Exchange": "″+++″ (≥50 = +++)"}, {"substance": "137 (NLIKTVIKL; listed as Homo sapiens) [compound 137]", "Peptide Exchange": "″+++″ (≥50 = +++)"}, {"substance": "360 (HLIDTNKIQL; listed as Homo sapiens) [compound 360]", "Peptide Exchange": "″+++″ (≥50 = +++)"}, {"substance": "365 (LISPLLLPV; listed as Homo sapiens) [compound 365]", "Peptide Exchange": "″+++″ (≥50 = +++)"}, {"substance": "94 (ILFPLRFTL; listed as Homo sapiens) [compound 94]", "Peptide Exchange": "″+++″ (≥50 = +++)"}, {"substance": "338 (FLDMTNWNL; listed as Homo sapiens) [compound 338]", "Peptide Exchange": "″++++″ (≥75% = ++++)"}, {"substance": "31 (ELMHGVAGV; listed as Homo sapiens) [compound 31]", "Peptide Exchange": "″+++″ (≥50 = +++)"}, {"substance": "67 (GLDDVTVEV; listed as Homo sapiens) [compound 67]", "Peptide Exchange": "″++″ (≥20% = ++)"}, {"substance": "42 (FLEEGGVVTV; listed as Homo sapiens) [compound 42]", "Peptide Exchange": "″+++″ (≥50 = +++)"}, {"substance": "274 (VLLEYHIAYL; listed as Homo sapiens) [compound 274]", "Peptide Exchange": "″+++″ (≥50 = +++)"}, {"substance": "260 (SLDDVEGMSV; listed as Homo sapiens) [compound 260]", "Peptide Exchange": "″+++″ (≥50 = +++)"}, {"substance": "345 (YLIEPDVELQRI; listed as Homo sapiens) [compound 345]", "Peptide Exchange": "″+++″ (≥50 = +++)"}, {"substance": "280 (YTLDSLYWSV; listed as Homo sapiens) [compound 280]", "Peptide Exchange": "″+++″ (≥50 = +++)"}, {"substance": "121 (RLYEITIEV; listed as Homo sapiens) [compound 121]", "Peptide Exchange": "″++++″ (≥75% = ++++)"}, {"substance": "30 (ELLEGSEIYL; listed as Homo sapiens) [compound 30]", "Peptide Exchange": "″+++″ (≥50 = +++)"}, {"substance": "296 (FIAPTGHSL; listed as Homo sapiens) [compound 296]", "Peptide Exchange": "″++″ (≥20% = ++)"}, {"substance": "44 (FLLSINDFL; listed as Homo sapiens) [compound 44]", "Peptide Exchange": "″+++″ (≥50 = +++)"}, {"substance": "35 (FILPSSLYL; listed as Homo sapiens) [compound 35]", "Peptide Exchange": "″+++″ (≥50 = +++)"}, {"substance": "55 (FMEPTLLML; listed as Homo sapiens) [compound 55]", "Peptide Exchange": "″+++″ (≥50 = +++)"}, {"substance": "337 (YMYEKESEL; listed as Homo sapiens) [compound 337]", "Peptide Exchange": "″++″ (≥20% = ++)"}, {"substance": "348 (ALAKPPVVSV; listed as Homo sapiens) [compound 348]", "Peptide Exchange": "″+++″ (≥50 = +++)"}, {"substance": "115 (LLFDKLYLL; listed as Homo sapiens) [compound 115]", "Peptide Exchange": "″+++″ (≥50 = +++)"}, {"substance": "116 (LLIGATMQV; listed as Homo sapiens) [compound 116]", "Peptide Exchange": "″+++″ (≥50 = +++)"}, {"substance": "301 (AASPIITLV; listed as Homo sapiens) [compound 301]", "Peptide Exchange": "″+++″ (≥50 = +++)"}, {"substance": "75 (GLSIFAQDLRL; listed as Homo sapiens) [compound 75]", "Peptide Exchange": "″++″ (≥20% = ++)"}, {"substance": "214 (RLQELTEKL; listed as Homo sapiens) [compound 214]", "Peptide Exchange": "″+++″ (≥50 = +++)"}, {"substance": "113 (KVPAEEVLVAV; listed as Homo sapiens) [compound 113]", "Peptide Exchange": "″+++″ (≥50 = +++)"}, {"substance": "226 (AMNISVPQV; listed as Homo sapiens) [compound 226]", "Peptide Exchange": "″+++″ (≥50 = +++)"}, {"substance": "142 (QLDEPAPQV; listed as Homo sapiens) [compound 142]", "Peptide Exchange": "″++″ (≥20% = ++)"}, {"substance": "218 (ALGEEWKGYVV; listed as Homo sapiens) [compound 218]", "Peptide Exchange": "″++″ (≥20% = ++)"}, {"substance": "50 (FLFEPVVKAFL; listed as Homo sapiens) [compound 50]", "Peptide Exchange": "″+++″ (≥50 = +++)"}, {"substance": "106 (FMASHLDYL; listed as Homo sapiens) [compound 106]", "Peptide Exchange": "″+++″ (≥50 = +++)"}, {"substance": "188 (VMGDIPAAV; listed as Homo sapiens) [compound 188]", "Peptide Exchange": "″++″ (≥20% = ++)"}, {"substance": "312 (LLYNSTDPTL; listed as Homo sapiens) [compound 312]", "Peptide Exchange": "″+++″ (≥50 = +++)"}, {"substance": "159 (SLQEEKLIYV; listed as Homo sapiens) [compound 159]", "Peptide Exchange": "″+++″ (≥50 = +++)"}, {"substance": "183 (VLMPTVYQQGV; listed as Homo sapiens) [compound 183]", "Peptide Exchange": "″+++″ (≥50 = +++)"}, {"substance": "84 (GVMDVNTAL; listed as Homo sapiens) [compound 84]", "Peptide Exchange": "″++″ (≥20% = ++)"}, {"substance": "231 (FLYIRQLAI; listed as Homo sapiens) [compound 231]", "Peptide Exchange": "″+++″ (≥50 = +++)"}, {"substance": "152 (SLIRILQTI; listed as Homo sapiens) [compound 152]", "Peptide Exchange": "″+++″ (≥50 = +++)"}, {"substance": "6 (ALDTLEDDMTI; listed as Homo sapiens) [compound 6]", "Peptide Exchange": "″+++″ (≥50 = +++)"}, {"substance": "353 (ATPMPTPSV; listed as Homo sapiens) [compound 353]", "Peptide Exchange": "″++″ (≥20% = ++)"}, {"substance": "356 (FLHDHQAEL; listed as Homo sapiens) [compound 356]", "Peptide Exchange": "″++″ (≥20% = ++)"}, {"substance": "184 (VLSHNLYTV; listed as Homo sapiens) [compound 184]", "Peptide Exchange": "″+++″ (≥50 = +++)"}, {"substance": "382 (YLLPLLQRL; listed as Homo sapiens) [compound 382]", "Peptide Exchange": "″++++″ (≥75% = ++++)"}, {"substance": "52 (FLVETGFLHV; listed as Homo sapiens) [compound 52]", "Peptide Exchange": "″++++″ (≥75% = ++++)"}, {"substance": "306 (VVAEELENV; listed as Homo sapiens) [compound 306]", "Peptide Exchange": "″++″ (≥20% = ++)"}, {"substance": "60 (FVLDHEDGLNL; listed as Homo sapiens) [compound 60]", "Peptide Exchange": "″+++″ (≥50 = +++)"}, {"substance": "172 (TLYDMLASI; listed as Homo sapiens) [compound 172]", "Peptide Exchange": "″+++″ (≥50 = +++)"}, {"substance": "294 (ALLDQLHTLL; listed as Homo sapiens) [compound 294]", "Peptide Exchange": "″++++″ (≥75% = ++++)"}, {"substance": "225 (ILQERELLPV; listed as Homo sapiens) [compound 225]", "Peptide Exchange": "″+++″ (≥50 = +++)"}, {"substance": "63 (SLAHVAGCEL; listed as Homo sapiens) [compound 63]", "Peptide Exchange": "″+++″ (≥50 = +++)"}, {"substance": "21 (ALWAGLLTL; listed as Homo sapiens) [compound 21]", "Peptide Exchange": "″+++″ (≥50 = +++)"}, {"substance": "265 (TLLADDLEIKL; listed as Homo sapiens) [compound 265]", "Peptide Exchange": "″+++″ (≥50 = +++)"}, {"substance": "80 (VLIEDELEEL; listed as Homo sapiens) [compound 80]", "Peptide Exchange": "″++″ (≥20% = ++)"}, {"substance": "354 (FIMDDPAGNSYL; listed as Homo sapiens) [compound 354]", "Peptide Exchange": "″+++″ (≥50 = +++)"}, {"substance": "64 (KLLESVASA; listed as Homo sapiens) [compound 64]", "Peptide Exchange": "″+++″ (≥50 = +++)"}, {"substance": "153 (SLLAELHVL; listed as Homo sapiens) [compound 153]", "Peptide Exchange": "″+++″ (≥50 = +++)"}, {"substance": "109 (KLWEGLTELV; listed as Homo sapiens) [compound 109]", "Peptide Exchange": "″+++″ (≥50 = +++)"}, {"substance": "88 (ILDEIGADVQA; listed as Homo sapiens) [compound 88]", "Peptide Exchange": "″+++″ (≥50 = +++)"}, {"substance": "247 (KLKDRLPSI; listed as Homo sapiens) [compound 247]", "Peptide Exchange": "″++″ (≥20% = ++)"}, {"substance": "259 (RLLDEQFAVL; listed as Homo sapiens) [compound 259]", "Peptide Exchange": "″+++″ (≥50 = +++)"}, {"substance": "19 (QVMEKLAAV; listed as Homo sapiens) [compound 19]", "Peptide Exchange": "″+++″ (≥50 = +++)"}]}]}
